For test [1], the target named is CD20 on cells (Daudi cells, B cells in PBMCs) (human) (UniProt P11836). Briefly: cell-based or functional assay.
Test [2] deals with Soluble single-chain FcRn (extracellular domain of the human FcRn heavy chain fused with β2-microglobulin via a flexible peptide linker) (human) (UniProt P55899). Briefly: SPR (BIACORE X), scFcRn amine-coupled to CM5 chip, antibody 25-400 nM as analyte, pH 6.0, two-state reaction model; Run 3.
The target is the same in test [3]. In words: SPR (BIACORE X), scFcRn amine-coupled to CM5 chip, antibody 25-400 nM as analyte, pH 6.0, two-state reaction model; Run 2.
The target is the same in test [4]. Briefly: SPR (BIACORE X), scFcRn on CM5 chip, pH 6.0, two-state reaction model; mean of 3 runs, S.D. 21.5.
Test [5] has the same target. Briefly: SPR (BIACORE X), scFcRn on CM5 chip, pH 6.0, two-state reaction model; mean of 3 runs, S.D. 2.72 × 10^4.
Test [6] shares this target. In words: SPR, scFcRn immobilised, pH 6.0.
The target is the same in test [7]. In words: SPR (BIACORE X), scFcRn on CM5 chip, pH 6.0, two-state reaction model; mean of 3 runs, S.D. 0.0024.
For test [8] the target is unchanged. In words: SPR (BIACORE X), scFcRn amine-coupled to CM5 chip, antibody 25-400 nM as analyte, pH 6.0, two-state reaction model; Run 1.
For test [9] the target is unchanged. In words: SPR (BIACORE X), scFcRn on CM5 chip, pH 6.0, two-state reaction model; mean of 3 runs, S.D. 1.5.
The target of test [10] is CD22 on cells (B cells in PBMCs, Daudi, D1-1 cells) (human) (UniProt P20273). In words: cell-based or functional assay.

Chain of Soluble single-chain FcRn (extracellular domain of the human FcRn heavy chain fused with β2-microglobulin via a flexible peptide linker) (human) (P55899 24-297 limits assumed, chain 1 of 2): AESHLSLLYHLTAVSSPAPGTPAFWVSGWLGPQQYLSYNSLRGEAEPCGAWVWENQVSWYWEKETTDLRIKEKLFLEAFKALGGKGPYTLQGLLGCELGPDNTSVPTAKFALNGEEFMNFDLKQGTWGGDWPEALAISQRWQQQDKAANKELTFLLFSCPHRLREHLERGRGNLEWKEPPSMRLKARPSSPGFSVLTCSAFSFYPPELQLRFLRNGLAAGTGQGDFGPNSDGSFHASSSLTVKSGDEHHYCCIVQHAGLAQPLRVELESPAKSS
Chain of Soluble single-chain FcRn (extracellular domain of the human FcRn heavy chain fused with β2-microglobulin via a flexible peptide linker) (human) (P61769 21-119 limits assumed, chain 2 of 2, further chain): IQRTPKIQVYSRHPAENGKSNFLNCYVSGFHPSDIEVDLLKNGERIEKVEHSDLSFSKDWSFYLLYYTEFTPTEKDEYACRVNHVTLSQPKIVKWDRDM
Chain of CD20 on cells (Daudi cells, B cells in PBMCs) (human) (P11836 whole entry, the tested form may be a part): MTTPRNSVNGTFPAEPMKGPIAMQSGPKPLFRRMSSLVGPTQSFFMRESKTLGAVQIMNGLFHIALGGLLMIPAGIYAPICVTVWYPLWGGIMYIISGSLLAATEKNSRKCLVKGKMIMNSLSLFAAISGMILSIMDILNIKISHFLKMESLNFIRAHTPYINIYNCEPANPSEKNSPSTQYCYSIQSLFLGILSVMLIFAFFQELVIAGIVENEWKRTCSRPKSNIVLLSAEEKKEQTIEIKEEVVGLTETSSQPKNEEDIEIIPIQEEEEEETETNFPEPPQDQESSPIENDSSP

Molecule “20*-2b (Ck-AD2-IgG-veltuzumab conjugated with IFNα2b-DDD2) (from UniProt P01563 24-188)” gave a cytotoxicity in Daudi cells, EC50 (MTS assay, 3 days) in test [1] of 200 nM.
“20-2b (CH3-AD2-IgG-veltuzumab conjugated with IFNα2b-DDD2) (from UniProt P01563 24-188)”: the cytotoxicity in Daudi cells, EC50 (MTS assay, 3 days) in test [1] came to 200 nM.
Regarding “22*-(20)-(20), anti-CD22/CD20 bispecific hexavalent antibody (Ck-AD2-IgG-epratuzumab conjugated with CH1-DDD2-Fab-veltuzumab) (bispecific antibody)”, the Kd in test [2] is 178 nM; in [3], 179 nM; in test [4], 166 nM; in test [6], 155 nM; in test [8], 141 nM. For the same molecule, the koff in [2] is 0.0441 s⁻¹; in test [3], 0.0404 s⁻¹; in test [7], 0.0413 s⁻¹; in [8], 0.0395 s⁻¹. Further, the kon in test [2] came out at 248000 M⁻¹ s⁻¹; in test [3], 226000 M⁻¹ s⁻¹; in test [5], 251000 M⁻¹ s⁻¹; in test [8] it was 280000 M⁻¹ s⁻¹. Moreover, in test [6], the fold stronger binding affinity than 22-(20)-(20) turned out to be 2 fold.
As to “22-(20)-(20), Fc-based anti-CD22/CD20 bispecific hexavalent antibody (CH3-AD2-IgG-epratuzumab conjugated with CH1-DDD2-Fab-veltuzumab) (bispecific antibody)”, the Kd in test [2] turned out to be 352 nM; in test [3] it was 267 nM.
For the molecule “Epratuzumab (humanized anti-CD22 IgG1κ) (antibody)”, the Kd in test [2] is 15.8 nM; in [9], 16.3 nM; in [3] it was 17.9 nM; in test [8], 15 nM.

B1: F(ab′)2 fragment of epratuzumab (protein, INN chains, looked up)
VH: QVQLVQSGAEVKKPGSSVKVSCKASGYTFTSYWLHWVRQAPGQGLEWIGYINPRNDYTEYNQNFKDKATITADESTNTAYMELSSLRSEDTAFYFCARRDITTFYWGQGTTVTVSS
VL: DIQLTQSPSSLSASVGDRVTMSCKSSQSVLYSANHKNYLAWYQQKPGKAPKLLIYWASTRESGVPSRFSGSGSGTDFTFTISSLQPEDIATYYCHQYLSSWTFGGGTKLEIK
modifications: F(ab')2
In the case of B1, the CD22 level on the surface of B cells in PBMCs (% of isotype control MFI), 10 µg/mL in test [10] stood at 45 % control.
